# Source: article PMC5062973 (Nucleic Acids Research, 2016)
# T1: M. jannaschii Nop5 (amino acids 1-367) (M. jannaschii, UniProt Q58105 1-367)
# T1 sequence (looked up): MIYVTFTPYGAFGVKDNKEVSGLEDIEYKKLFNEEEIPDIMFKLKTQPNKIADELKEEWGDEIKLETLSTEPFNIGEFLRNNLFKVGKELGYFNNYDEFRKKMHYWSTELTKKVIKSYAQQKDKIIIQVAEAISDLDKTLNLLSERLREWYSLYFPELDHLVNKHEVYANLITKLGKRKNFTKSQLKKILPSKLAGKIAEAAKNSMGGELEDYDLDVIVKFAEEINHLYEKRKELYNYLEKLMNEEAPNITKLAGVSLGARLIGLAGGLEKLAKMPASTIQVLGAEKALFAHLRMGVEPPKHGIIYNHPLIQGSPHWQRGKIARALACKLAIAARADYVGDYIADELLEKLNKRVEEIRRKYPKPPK
# B1: M. jannaschii fibrillarin with a N-terminal FLAG-tag (enzyme, UniProt Q58108 1-230, looked up)
# chain: MEDIKIKEIFENIYEVDLGDGLKRIATKSIVKGKKVYDEKIIKIGDEEYRIWNPNKSKLAAAIIKGLKVMPIKRDSKILYLGASAGTTPSHVADIADKGIVYAIEYAPRIMRELLDACAERENIIPILGDANKPQEYANIVEKVDVIYEDVAQPNQAEILIKNAKWFLKKGGYGMIAIKARSIDVTKDPKEIFKEQKEILEAGGFKIVDEVDIEPFEKDHVMFVGIWEGK
# B2: M. jannaschii L7Ae (natural protein)
# chain: not shown
# Molecular target: T1, M. jannaschii Nop5 (amino acids 1-367)
# Assay: SEC
row,Binder,binding result
1,B1,binds
2,B2,binds
